Source: patent US20200024330A1

Key:
Assay in all cases: cell-based or functional assay
[1] = target: HIV-1 92BR020 envelope glycoprotein (Env) on pseudovirus (HIV-1)
[2] = target: HIV-1 92RW020 envelope glycoprotein (Env) on pseudovirus (HIV-1)
[3] = target: HIV-1 Env of isolate 6535.3 (HIV-1)
[4] = target: HIV-1 Env of isolate 92BR020 (HIV-1)
[5] = target: HIV-1 Env of isolate 92RW008 (clade A), on pseudovirus (HIV-1)
[6] = target: HIV-1 Env of isolate 92RW009 (clade A), on pseudovirus (HIV-1)
[7] = target: HIV-1 Env of isolate 92TH021 (pseudovirus) (HIV-1)
[8] = target: HIV-1 Env of isolate 92UG001 (subtype D), on pseudovirus (HIV-1)
[9] = target: HIV-1 Env of isolate 92UG005 (subtype D), on pseudovirus (HIV-1)
[10] = target: HIV-1 Env of isolate 92UG024 (subtype D), on pseudovirus (HIV-1)
[11] = target: HIV-1 Env of isolate 92UG031 (pseudovirus) (HIV-1)
[12] = target: HIV-1 Env of isolate 92UG037 (pseudovirus) (HIV-1)
[13] = target: HIV-1 Env of isolate 92UG046 (subtype D), on pseudovirus (HIV-1)
[14] = target: HIV-1 Env of isolate 92UG114 (subtype D), on pseudovirus (HIV-1)
[15] = target: HIV-1 Env of isolate 92WR020 (pseudovirus) (HIV-1)
[16] = target: HIV-1 Env of isolate 92WR021 (pseudovirus) (HIV-1)
[17] = target: HIV-1 Env of isolate 92WR024 (pseudovirus) (HIV-1)
[18] = target: HIV-1 Env of isolate 92WR026 (pseudovirus) (HIV-1)
[19] = target: HIV-1 Env of isolate 93TH305 (HIV-1)
[20] = target: HIV-1 Env of isolate 93UG077 (pseudovirus) (HIV-1)
[21] = target: HIV-1 Env of isolate 93WR029 (pseudovirus) (HIV-1)
[22] = target: HIV-1 Env of isolate 94 KE 105 (pseudovirus) (HIV-1)
[23] = target: HIV-1 Env of isolate 94UG103 (pseudovirus) (HIV-1)
[24] = target: HIV-1 Env of isolate 98CN006 (subtype CRF08 BC), on pseudovirus (HIV-1)
[25] = target: HIV-1 Env of isolate 98CN009 (subtype CRF07_BC), on pseudovirus (HIV-1)
[26] = target: HIV-1 Env of isolate APV_13 (HIV-1)
[27] = target: HIV-1 Env of isolate APV_17 (HIV-1)
[28] = target: HIV-1 Env of isolate APV_6 (HIV-1)
[29] = target: HIV-1 Env of isolate CAAN.A2 (HIV-1)
[30] = target: HIV-1 Env of isolate CMU02 (pseudovirus) (HIV-1)
[31] = target: HIV-1 Env of isolate JRFL (HIV-1)
[32] = target: HIV-1 Env of isolate MG RM-A-005 (pseudovirus) (HIV-1)
[33] = target: HIV-1 Env of isolate MG RM-A-006 (pseudovirus) (HIV-1)
[34] = target: HIV-1 Env of isolate MG RM-A-007 (pseudovirus) (HIV-1)
[35] = target: HIV-1 Env of isolate MG RM-A-008 (pseudovirus) (HIV-1)
[36] = target: HIV-1 Env of isolate MG RM-A-009 (pseudovirus) (HIV-1)
[37] = target: HIV-1 Env of isolate MG RM-A-010 (pseudovirus) (HIV-1)
[38] = target: HIV-1 Env of isolate MG RM-A-011 (pseudovirus) (HIV-1)
[39] = target: HIV-1 Env of isolate MG RM-A-012 (pseudovirus) (HIV-1)
[40] = target: HIV-1 Env of isolate MG RM-A-013 (pseudovirus) (HIV-1)
[41] = target: HIV-1 Env of isolate MG RM-A-014 (pseudovirus) (HIV-1)
[42] = target: HIV-1 Env of isolate MGRM-AE-001 (pseudovirus) (HIV-1)
[43] = target: HIV-1 Env of isolate MGRM-AE-002 (pseudovirus) (HIV-1)
[44] = target: HIV-1 Env of isolate MGRM-AE-003 (pseudovirus) (HIV-1)
[45] = target: HIV-1 Env of isolate MGRM-AE-004 (pseudovirus) (HIV-1)
[46] = target: HIV-1 Env of isolate MGRM-AE-005 (pseudovirus) (HIV-1)
[47] = target: HIV-1 Env of isolate MGRM-AE-006 (pseudovirus) (HIV-1)
[48] = target: HIV-1 Env of isolate MGRM-Chronic-B-001 (HIV-1)
[49] = target: HIV-1 Env of isolate MGRM-Chronic-B-002 (HIV-1)
[50] = target: HIV-1 Env of isolate MGRM-Chronic-B-003 (HIV-1)
[51] = target: HIV-1 Env of isolate MGRM-Chronic-B-004 (HIV-1)
[52] = target: HIV-1 Env of isolate MGRM-Chronic-B-008 (HIV-1)
[53] = target: HIV-1 Env of isolate MGRM-D-001 (subtype D), on pseudovirus (HIV-1)
[54] = target: HIV-1 Env of isolate MGRM-D-002 (subtype D), on pseudovirus (HIV-1)
[55] = target: HIV-1 Env of isolate MGRM-D-003 (subtype D), on pseudovirus (HIV-1)
[56] = target: HIV-1 Env of isolate MGRM-D-004 (subtype D), on pseudovirus (HIV-1)
[57] = target: HIV-1 Env of isolate MGRM-D-005 (subtype D), on pseudovirus (HIV-1)
[58] = target: HIV-1 Env of isolate MGRM-D-008 (subtype D), on pseudovirus (HIV-1)
[59] = target: HIV-1 Env of isolate VLGCA1 (pseudovirus) (HIV-1)

Sequence of 4970_K22 (PGT-144) (antibody) (VH): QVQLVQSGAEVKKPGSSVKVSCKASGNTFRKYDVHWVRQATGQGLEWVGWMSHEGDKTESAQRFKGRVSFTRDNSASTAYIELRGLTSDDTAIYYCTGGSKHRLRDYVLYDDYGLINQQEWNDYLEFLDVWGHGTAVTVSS
Sequence of 4970_K22 (PGT-144) (antibody) (VL): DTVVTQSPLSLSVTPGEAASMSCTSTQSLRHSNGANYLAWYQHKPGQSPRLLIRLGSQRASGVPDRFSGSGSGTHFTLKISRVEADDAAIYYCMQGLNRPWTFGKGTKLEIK
Sequence of 4995_P16 (PGT-145) (antibody) (VH): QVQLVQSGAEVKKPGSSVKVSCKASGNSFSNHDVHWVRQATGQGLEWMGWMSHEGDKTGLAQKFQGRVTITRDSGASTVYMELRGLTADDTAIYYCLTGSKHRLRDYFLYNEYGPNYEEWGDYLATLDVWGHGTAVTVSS
Sequence of 4995_P16 (PGT-145) (antibody) (VL): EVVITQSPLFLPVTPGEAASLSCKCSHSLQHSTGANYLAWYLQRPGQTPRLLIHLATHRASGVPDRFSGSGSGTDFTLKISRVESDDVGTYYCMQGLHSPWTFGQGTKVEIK

## 4970_K22 (PGT-144) (antibody)
[1]
  IC50 (ug/ml), neutralizing activity: > 10 µg/mL
[2]
  IC50 (ug/ml), neutralizing activity: > 10 µg/mL
[3]
  IC50: > 50 µg/mL
[4]
  IC50: 44 µg/mL
[5]
  IC50, single-round pseudovirus neutralization: > 50 µg/mL
[6]
  IC50, single-round pseudovirus neutralization: 0.893 µg/mL
[7]
  IC50 (µg/mL), pseudovirus neutralization: 0.052 µg/mL
[8]
  IC50, pseudovirus neutralization: > 50 µg/mL
[9]
  IC50, pseudovirus neutralization: > 50 µg/mL
[10]
  IC50, pseudovirus neutralization: > 50 µg/mL
[11]
  IC50 (µg/mL), pseudovirus neutralization: 2.17 µg/mL
[12]
  IC50 (µg/mL), pseudovirus neutralization: 8.24 µg/mL
[13]
  IC50, pseudovirus neutralization: > 50 µg/mL
[14]
  IC50, pseudovirus neutralization: > 50 µg/mL
[15]
  IC50 (µg/mL), pseudovirus neutralization: > 50 µg/mL
[16]
  IC50 (µg/mL), pseudovirus neutralization: > 50 µg/mL
[17]
  IC50 (µg/mL), pseudovirus neutralization: 16.3 µg/mL
[18]
  IC50 (µg/mL), pseudovirus neutralization: 32.7 µg/mL
[19]
  IC50: > 50 µg/mL
[20]
  IC50 (µg/mL), pseudovirus neutralization: > 50 µg/mL
[21]
  IC50 (µg/mL), pseudovirus neutralization: 4.39 µg/mL
[22]
  IC50 (µg/mL), pseudovirus neutralization: 0.29 µg/mL
[23]
  IC50 (µg/mL), pseudovirus neutralization: > 50 µg/mL
[24]
  IC50, pseudovirus neutralization: > 50 µg/mL
[25]
  IC50, pseudovirus neutralization: > 50 µg/mL
[26]
  IC50: > 50 µg/mL
[27]
  IC50: 10.3 µg/mL
[28]
  IC50: > 50 µg/mL
[29]
  IC50: > 50 µg/mL
[30]
  IC50 (µg/mL), pseudovirus neutralization: > 50 µg/mL
[31]
  IC50: > 50 µg/mL
[32]
  IC50 (µg/mL), pseudovirus neutralization: 18.6 µg/mL
[33]
  IC50 (µg/mL), pseudovirus neutralization: > 50 µg/mL
[34]
  IC50 (µg/mL), pseudovirus neutralization: > 50 µg/mL
[35]
  IC50 (µg/mL), pseudovirus neutralization: > 50 µg/mL
[36]
  IC50 (µg/mL), pseudovirus neutralization: 2.83 µg/mL
[37]
  IC50 (µg/mL), pseudovirus neutralization: 2.79 µg/mL
[38]
  IC50 (µg/mL), pseudovirus neutralization: > 50 µg/mL
[39]
  IC50 (µg/mL), pseudovirus neutralization: > 50 µg/mL
[40]
  IC50 (µg/mL), pseudovirus neutralization: > 50 µg/mL
[41]
  IC50 (µg/mL), pseudovirus neutralization: > 50 µg/mL
[42]
  IC50 (µg/mL), pseudovirus neutralization: > 50 µg/mL
[43]
  IC50 (µg/mL), pseudovirus neutralization: > 50 µg/mL
[44]
  IC50 (µg/mL), pseudovirus neutralization: > 50 µg/mL
[45]
  IC50 (µg/mL), pseudovirus neutralization: 0.104 µg/mL
[46]
  IC50 (µg/mL), pseudovirus neutralization: > 50 µg/mL
[47]
  IC50 (µg/mL), pseudovirus neutralization: > 50 µg/mL
[48]
  IC50: > 50 µg/mL
[49]
  IC50: > 50 µg/mL
[50]
  IC50: 7.41 µg/mL
[51]
  IC50: 9.41 µg/mL
[52]
  IC50: > 50 µg/mL
[53]
  IC50, pseudovirus neutralization: > 50 µg/mL
[54]
  IC50, pseudovirus neutralization: > 50 µg/mL
[55]
  IC50, pseudovirus neutralization: > 50 µg/mL
[56]
  IC50, pseudovirus neutralization: > 50 µg/mL
[57]
  IC50, pseudovirus neutralization: 14.8 µg/mL
[58]
  IC50, pseudovirus neutralization: 9.85 µg/mL
[59]
  IC50 (µg/mL), pseudovirus neutralization: > 50 µg/mL

## 4995_P16 (PGT-145) (antibody)
[3]
  IC50: > 50 µg/mL
[4]
  IC50: 1.05 µg/mL
[5]
  IC50, single-round pseudovirus neutralization: 0.4 µg/mL
[6]
  IC50, single-round pseudovirus neutralization: 0.026 µg/mL
[7]
  IC50 (µg/mL), pseudovirus neutralization: 0.013 µg/mL
[8]
  IC50, pseudovirus neutralization: > 50 µg/mL
[9]
  IC50, pseudovirus neutralization: > 50 µg/mL
[10]
  IC50, pseudovirus neutralization: 1.6 µg/mL
[11]
  IC50 (µg/mL), pseudovirus neutralization: 3.22 µg/mL
[12]
  IC50 (µg/mL), pseudovirus neutralization: 3.15 µg/mL
[13]
  IC50, pseudovirus neutralization: > 50 µg/mL
[14]
  IC50, pseudovirus neutralization: 20.1 µg/mL
[15]
  IC50 (µg/mL), pseudovirus neutralization: 0.997 µg/mL
[16]
  IC50 (µg/mL), pseudovirus neutralization: 1.62 µg/mL
[17]
  IC50 (µg/mL), pseudovirus neutralization: 0.069 µg/mL
[18]
  IC50 (µg/mL), pseudovirus neutralization: 1.45 µg/mL
[19]
  IC50: 0.032 µg/mL
[20]
  IC50 (µg/mL), pseudovirus neutralization: > 50 µg/mL
[21]
  IC50 (µg/mL), pseudovirus neutralization: > 50 µg/mL
[22]
  IC50 (µg/mL), pseudovirus neutralization: 1.32 µg/mL
[23]
  IC50 (µg/mL), pseudovirus neutralization: 0.331 µg/mL
[24]
  IC50, pseudovirus neutralization: > 50 µg/mL
[25]
  IC50, pseudovirus neutralization: 0.136 µg/mL
[26]
  IC50: 0.337 µg/mL
[27]
  IC50: 0.488 µg/mL
[28]
  IC50: 0.104 µg/mL
[29]
  IC50: 7.08 µg/mL
[30]
  IC50 (µg/mL), pseudovirus neutralization: 1.43 µg/mL
[31]
  IC50: 30.4 µg/mL
[32]
  IC50 (µg/mL), pseudovirus neutralization: 0.128 µg/mL
[33]
  IC50 (µg/mL), pseudovirus neutralization: > 50 µg/mL
[34]
  IC50 (µg/mL), pseudovirus neutralization: > 50 µg/mL
[35]
  IC50 (µg/mL), pseudovirus neutralization: > 50 µg/mL
[36]
  IC50 (µg/mL), pseudovirus neutralization: 0.235 µg/mL
[37]
  IC50 (µg/mL), pseudovirus neutralization: 0.028 µg/mL
[38]
  IC50 (µg/mL), pseudovirus neutralization: 0.484 µg/mL
[39]
  IC50 (µg/mL), pseudovirus neutralization: 0.23 µg/mL
[40]
  IC50 (µg/mL), pseudovirus neutralization: 1.76 µg/mL
[41]
  IC50 (µg/mL), pseudovirus neutralization: 1.36 µg/mL
[42]
  IC50 (µg/mL), pseudovirus neutralization: 20.9 µg/mL
[43]
  IC50 (µg/mL), pseudovirus neutralization: 1.87 µg/mL
[44]
  IC50 (µg/mL), pseudovirus neutralization: 0.552 µg/mL
[45]
  IC50 (µg/mL), pseudovirus neutralization: 0.006 µg/mL
[46]
  IC50 (µg/mL), pseudovirus neutralization: 0.967 µg/mL
[47]
  IC50 (µg/mL), pseudovirus neutralization: > 50 µg/mL
[48]
  IC50: 3.22 µg/mL
[49]
  IC50: 3.67 µg/mL
[50]
  IC50: 0.045 µg/mL
[51]
  IC50: 0.023 µg/mL
[52]
  IC50: 1.9 µg/mL
[53]
  IC50, pseudovirus neutralization: 0.56 µg/mL
[54]
  IC50, pseudovirus neutralization: > 50 µg/mL
[55]
  IC50, pseudovirus neutralization: 0.006 µg/mL
[56]
  IC50, pseudovirus neutralization: 10.9 µg/mL
[57]
  IC50, pseudovirus neutralization: 10.4 µg/mL
[58]
  IC50, pseudovirus neutralization: 0.025 µg/mL
[59]
  IC50 (µg/mL), pseudovirus neutralization: 8.01 µg/mL
